Patent publication US20120207760A1

Tests used:
[1] = molecular target: recombinant homotrimeric HA, A/duck/Yangzhou/02/05 H8N4 (Influenza A virus A/duck/Yangzhou/02/2005 (H8N4)); assay: trimeric HA microarray, transfection set 2
[2] = molecular target: recombinant homotrimeric HA, A/Hong Kong/2108/03 H9N2 (Influenza A virus A/Hong Kong/2108/03 (H9N2)); assay: trimeric HA microarray, transfection set 2
[3] = molecular target: recombinant homotrimeric HA, A/chicken/Vietnam/NCVD-016/08 H5N1 (Influenza A virus A/chicken/Vietnam/NCVD-016/08 (H5N1)); assay: trimeric HA microarray, transfection set 2
[4] = molecular target: recombinant homotrimeric HA, A/Japan/305/57 H2N2 (Influenza A virus A/Japan/305/57 (H2N2)); assay: trimeric HA microarray, transfection set 2
[5] = molecular target: recombinant homotrimeric HA, A/Indonesia/5/05 H5N1 (Influenza A virus A/Indonesia/5/05 (H5N1)); assay: trimeric HA microarray, transfection set 2
[6] = molecular target: recombinant homotrimeric HA, A/California/4/09 H1N1 (Influenza A virus A/California/4/09 (H1N1)); assay: trimeric HA microarray, transfection set 2
[7] = molecular target: recombinant homotrimeric HA, A/Wisconsin/67/05 H3N2 (Influenza A virus A/Wisconsin/67/05 (H3N2)); assay: trimeric HA microarray, transfection set 2
[8] = molecular target: recombinant homotrimeric HA, A/common magpie/Hong Kong/5052/07 H5N1 (Influenza A virus A/common magpie/Hong Kong/5052/07 (H5N1)); assay: trimeric HA microarray, transfection set 2
[9] = molecular target: recombinant homotrimeric HA, A/Hong Kong/1073/99 H9N2 (Influenza A virus A/Hong Kong/1073/99 (H9N2)); assay: trimeric HA microarray, transfection set 2
[10] = molecular target: recombinant homotrimeric HA, A/Egypt/3300-NAMRU3/08 H5N1 (Influenza A virus A/Egypt/3300-NAMRU3/08 (H5N1)); assay: trimeric HA microarray, transfection set 2
[11] = molecular target: recombinant homotrimeric HA, A/northern shoveler/California/HKWF115/07 (Influenza A virus A/northern shoveler/California/HKWF115/2007 (H6N1)); assay: trimeric HA microarray, transfection set 2
[12] = molecular target: recombinant homotrimeric HA, A/swine/Ontario/01911-2/99 H4N6 (Influenza A virus A/swine/Ontario/01911-2/99 (H4N6)); assay: trimeric HA microarray, transfection set 2
[13] = molecular target: recombinant homotrimeric HA, A/Netherlands/219/03 H7N7 (Influenza A virus A/Netherlands/219/03 (H7N7)); assay: trimeric HA microarray, transfection set 2
[14] = molecular target: recombinant homotrimeric HA, A/South Carolina/1/18 H1N1 (Influenza A virus A/South Carolina/1/18 (H1N1)); assay: trimeric HA microarray, transfection set 2
[15] = molecular target: recombinant homotrimeric HA, A/Vietnam/1203/04 H5N1 (Influenza A virus A/Vietnam/1203/04 (H5N1)); assay: trimeric HA microarray, transfection set 2
[16] = molecular target: recombinant homotrimeric HA, A/Anhui/1/05 H5N1 (Influenza A virus A/Anhui/1/05 (H5N1)); assay: trimeric HA microarray, transfection set 2
[17] = molecular target: recombinant homotrimeric HA, A/Solomon Islands/3/06 H1N1 (Influenza A virus A/Solomon Islands/3/06 (H1N1)); assay: trimeric HA microarray, transfection set 2
[18] = molecular target: hemagglutinin (HA) of influenza A/Wisconsin/67/05 H3N2 (Influenza A virus A/Wisconsin/67/2005 (H3N2)); assay: ELISA, inactivated whole virions coated; transfection supernatant set 5
[19] = molecular target: hemagglutinin (HA) of influenza A/Solomon Islands/3/06 H1N1 (Influenza A virus A/Solomon Islands/3/2006 (H1N1)); assay: as above
[20] = molecular target: recombinant homotrimeric HA, A/Japan/305/57 H2N2 (Influenza A virus A/Japan/305/57 (H2N2)); assay: trimeric HA microarray, transfection set 5
[21] = molecular target: recombinant homotrimeric HA, A/Indonesia/5/05 H5N1 (Influenza A virus A/Indonesia/5/05 (H5N1)); assay: trimeric HA microarray, transfection set 5
[22] = molecular target: recombinant homotrimeric HA, A/California/4/09 H1N1 (Influenza A virus A/California/4/09 (H1N1)); assay: trimeric HA microarray, transfection set 5
[23] = molecular target: recombinant homotrimeric HA, A/swine/Ontario/01911-2/99 H4N6 (Influenza A virus A/swine/Ontario/01911-2/99 (H4N6)); assay: trimeric HA microarray, transfection set 5
[24] = molecular target: recombinant homotrimeric HA, A/South Carolina/1/18 H1N1 (Influenza A virus A/South Carolina/1/18 (H1N1)); assay: trimeric HA microarray, transfection set 5
[25] = molecular target: recombinant homotrimeric HA, A/Vietnam/1203/04 H5N1 (Influenza A virus A/Vietnam/1203/04 (H5N1)); assay: trimeric HA microarray, transfection set 5
[26] = molecular target: recombinant soluble homotrimeric HA of A/Hong Kong/156/97 - H5N1 (Influenza A virus A/Hong Kong/156/97 (H5N1)); assay: micro-array; captured IgG, V5-tagged trimeric HA
[27] = molecular target: recombinant soluble homotrimeric HA of A/northern shoveler/California/HKWF115/2007 - H6N1 (Influenza A virus A/northern shoveler/California/HKWF115/2007 (H6N1)); assay: micro-array; captured IgG, V5-tagged trimeric HA
[28] = molecular target: recombinant soluble homotrimeric HA of A/Egypt/3300-NAMRU3/08 - H5N1 (Influenza A virus A/Egypt/3300-NAMRU3/2008 (H5N1)); assay: micro-array; captured IgG, V5-tagged trimeric HA
[29] = molecular target: recombinant soluble homotrimeric HA of A/chicken/Vietnam/NCVD-016/08 - H5N1 (Influenza A virus A/chicken/Vietnam/NCVD-016/2008 (H5N1)); assay: micro-array; captured IgG, V5-tagged trimeric HA
[30] = molecular target: recombinant soluble homotrimeric HA of A/Netherlands/219/03 - H7N7 (Influenza A virus A/Netherlands/219/03 (H7N7)); assay: micro-array; captured IgG, V5-tagged trimeric HA
[31] = molecular target: recombinant soluble homotrimeric HA of A/Anhui/1/05 - H5N1 (Influenza A virus A/Anhui/1/2005 (H5N1)); assay: micro-array; captured IgG, V5-tagged trimeric HA
[32] = molecular target: recombinant soluble homotrimeric HA of A/duck/Yangzhou/02/2005 - H8N4 (Influenza A virus A/duck/Yangzhou/02/2005 (H8N4)); assay: micro-array; captured IgG, V5-tagged trimeric HA

TCN-202 (2N9) (antibody)
Trimeric HA Binding RLU [1]: 19 RLU | Trimeric HA Binding RLU [2]: 7 RLU | Trimeric HA Binding RLU [3]: 22 RLU | Trimeric HA Binding RLU [4]: 32 RLU | Trimeric HA Binding RLU [5]: 8 RLU | Trimeric HA Binding RLU [6]: 52 RLU | Trimeric HA Binding RLU [7]: 46 RLU | Trimeric HA Binding RLU [8]: 11 RLU | Trimeric HA Binding RLU [9]: 33 RLU | Trimeric HA Binding RLU [10]: 18 RLU | Trimeric HA Binding RLU [11]: 30 RLU | Trimeric HA Binding RLU [12]: 15 RLU | Trimeric HA Binding RLU [13]: 26 RLU | Trimeric HA Binding RLU [14]: 195 RLU | Trimeric HA Binding RLU [15]: 121 RLU | Trimeric HA Binding RLU [16]: 9 RLU | Trimeric HA Binding RLU [17]: 16 RLU | OD450 [18]: 0.07 OD450 | OD450 [19]: 0.07 OD450 | Trimeric HA Binding RLU [20]: 1880 RLU | Trimeric HA Binding RLU [21]: 1970 RLU | Trimeric HA Binding RLU [22]: 733 RLU | Trimeric HA Binding RLU [23]: 2690 RLU | Trimeric HA Binding RLU [24]: 5330 RLU | Trimeric HA Binding RLU [25]: 30000 RLU | Trimeric HA Binding: RLU [26]: 945 RLU | Trimeric HA Binding: RLU [27]: 3040 RLU | Trimeric HA Binding: RLU [28]: 13900 RLU | Trimeric HA Binding: RLU [29]: 2570 RLU | Trimeric HA Binding: RLU [30]: 18000 RLU | Trimeric HA Binding: RLU [31]: 10000 RLU | Trimeric HA Binding: RLU [32]: 13800 RLU
